B1: HMfB homodimer (Methanothermus fervidus histone HMfB) (natural protein)
chain: not shown
B2: HMfA_(K31A E35A) (natural protein)
chain: not shown
B3: HMfB_(D14A K30A E34A) (natural protein)
chain: not shown
B4: HMfA homodimer (Methanothermus fervidus histone HMfA) (natural protein)
chain: not shown

Target: the molecule itself
Test: magnetic tweezers force spectroscopy

Going from B1 to B2, the stacking energy falls from 3.44 kBT to 1.18 kBT.

First: B3
Second: B4
The stacking energy of the first is lower: 1.07 kBT for the first, 1.81 kBT for the second.

— PMC8096283 (Nucleic Acids Research, 2020)
